Data taken from the supplement of paper PMC10598134.
± gives the standard deviation.

Assay: collision cross section of modified peptide (TIMS, N2, iRT-aligned); higher = larger / more extended gas-phase ion
Method in brief: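 On a timsTOF Pro/HT (dda-PASEF, nitrogen, ~2.4 mbar), synthetic peptide pools were analysed after a 120-min nanoflow C18 separation at 60 °C and identified in MaxQuant. Three reference ions served for 1/K0 calibration, with run-wise alignment to the median iRT peptide deviation. Collision cross section comes from the Mason-Schamp equation, using the most abundant feature per charge state averaged over 1–3 technical replicates.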

[1] = charge state: 2, modification: Dimethyl (K)
[2] = charge state: 3, modification: Dimethyl (K)
[3] = charge state: 2, modification: GlyGly (K)
[4] = charge state: 3, modification: GlyGly (K)
[5] = charge state: 2, modification: Methyl (R)
[6] = charge state: 3, modification: Methyl (R)
[7] = charge state: 2, modification: Acetyl (K)
[8] = charge state: 2, modification: Crotonyl
[9] = charge state: 2, modification: Formyl
[10] = charge state: 2, modification: Butyryl
[11] = charge state: 2, modification: Trimethyl (K)
[12] = charge state: 3, modification: Trimethyl (K)
[13] = charge state: 2, modification: Succinyl
[14] = charge state: 3, modification: Succinyl

With INNFSADIKDSK [_INNFSADIK(Malonyl)DSK_] the collision cross section (charge state: 2, modification: Malonyl) was 398.58 ± 0.027 Å².

With “GSLGAQKLANTCFNEIEK [_GSLGAQK(Biotin)LANTCFNEIEK_]” the collision cross section (charge state: 3, modification: Biotin) was 538.06 ± 0.96 Å².

In the case of “VDIDAPDVSIEGPDAKLK [_VDIDAPDVSIEGPDAK(Dimethyl (K))LK_]”, the collision cross section [1] is reported as 457.63 ± 1.8 Å² and the collision cross section [2] is reported as 550.49 ± 0.63 Å².

With DHLSDKESK [_DHLSDK(GlyGly (K))ESK_] the collision cross section [3] was 353.15 ± 0.53 Å² and the collision cross section [4] was 411.26 Å².

With LLRGVGGSHGR [_LLR(Methyl (R))GVGGSHGR_] the collision cross section [5] was 374.24 Å² and the collision cross section [6] was 456.7 ± 11 Å².

For “VYIASSSGSTAIKK [_VYIASSSGSTAIK(hydroxyisobutyryl)K_]”, the collision cross section (charge state: 2, modification: hydroxyisobutyryl) was 417.04 ± 1.1 Å² and the collision cross section (charge state: 3, modification: hydroxyisobutyryl) was 511.39 ± 2 Å².

Work on VGEFSGANKEK [_VGEFSGANK(Acetyl (K))EK_] yielded a collision cross section [7] of 363.56 ± 0.5 Å².

In the case of “SNEEGSEEKGPEVR [_SNEEGSEEK(Crotonyl)GPEVR_]”, the collision cross section [8] is reported as 406.51 ± 0.28 Å².

In the case of LEEVTGKLQVAR [_LEEVTGK(Formyl)LQVAR_], the collision cross section [9] is reported as 388.92 ± 0.55 Å².

“DLGKFQVATDALK [_DLGK(Acetyl (K))FQVATDALK_]” gave a collision cross section [7] of 405.65 ± 0.97 Å².

In the case of “FSAYIKNSNPALNDNLEK [_FSAYIK(Gluratylation)NSNPALNDNLEK_]”, the collision cross section (charge state: 2, modification: Glutarylation) is reported as 487.96 ± 2 Å² and the collision cross section (charge state: 3, modification: Glutarylation) is reported as 547.09 ± 1.3 Å².

Sequence SLKLNTAEDAK [_SLK(Acetyl (K))LNTAEDAK_] has a collision cross section [7] of 373.49 ± 1.6 Å².

In the case of “ATVASSTQKFQDLGVK [_ATVASSTQK(Methyl (K))FQDLGVK_]”, the collision cross section (charge state: 2, modification: Methyl (K)) is reported as 464.26 ± 2.2 Å² and the collision cross section (charge state: 3, modification: Methyl (K)) is reported as 478.87 ± 3.4 Å².

“DSSPTTNSKLSALQR [_DSSPTTNSK(Butyryl)LSALQR_]” gave a collision cross section [10] of 435.34 ± 0.76 Å² and a collision cross section (charge state: 3, modification: Butyryl) of 499.02 ± 1.9 Å².

With “TGGTQTDLFTCGKCK [_TGGTQTDLFTCGK(Butyryl)CK_]” the collision cross section [10] was 444.65 Å².

For “GGGDRGGFGPGK [_GGGDR(Methyl (R))GGFGPGK_]”, the collision cross section [5] was 341.42 ± 0.86 Å² and the collision cross section [6] was 412.06 ± 3 Å².

In the case of IYHPNVDK [_IY(Nitro (Y))HPNVDK_], the collision cross section (charge state: 2, modification: Nitro (Y)) is reported as 340.06 ± 0.72 Å² and the collision cross section (charge state: 3, modification: Nitro (Y)) is reported as 427.49 ± 0.064 Å².

Work on “AAINQKLIETGER [_AAINQK(Trimethyl (K))LIETGER_]” yielded a collision cross section [11] of 420.64 ± 0.75 Å² and a collision cross section [12] of 472.14 ± 3.7 Å².

In the case of “SLFFGGKGAPLQR [_SLFFGGK(GlyGly (K))GAPLQR_]”, the collision cross section [3] is reported as 414.92 ± 0.35 Å² and the collision cross section [4] is reported as 468.6 ± 1.1 Å².

“VNVEAPDVNLEGLGGKLK [_VNVEAPDVNLEGLGGK(Succinyl)LK_]” showed a collision cross section [13] of 466.17 ± 1.4 Å² and a collision cross section [14] of 548.55 ± 1.1 Å².

LEQVEKELLR [_LEQVEK(Butyryl)ELLR_] gave a collision cross section [10] of 391.61 ± 1.3 Å².

Work on LLFSNTAAQKLR [_LLFSNTAAQK(Succinyl)LR_] yielded a collision cross section [13] of 404.93 ± 0.55 Å² and a collision cross section [14] of 482.98 ± 3.3 Å².

Sequence “PRTPTAPAVNLAGAR [_PR(Methyl (R))TPTAPAVNLAGAR_]” has a collision cross section [6] of 486.43 ± 2.3 Å².

Work on LQDVSGQLSSSKK [_LQDVSGQLSSSK(Formyl)K_] yielded a collision cross section [9] of 394.61 ± 0.21 Å².

TSYAQHQQVR [_TSY(Phospho (Y))AQHQQVR_] showed a collision cross section (charge state: 2, modification: Phospho (Y)) of 370.43 ± 0.064 Å² and a collision cross section (charge state: 3, modification: Phospho (Y)) of 475.13 ± 0.98 Å².

“VGEFSGANKEK [_VGEFSGANK(Trimethyl (K))EK_]” gave a collision cross section [11] of 384.48 ± 1.7 Å² and a collision cross section [12] of 437.18 ± 7.5 Å².

“ATVASSTQKFQDLGVK [_ATVASSTQK(Dimethyl (K))FQDLGVK_]” gave a collision cross section [1] of 461.58 ± 1.2 Å² and a collision cross section [2] of 471.81 ± 2.1 Å².

“TSAVSSQANSQPPVQVSVK [_T(HexNAc (ST))SAVSSQANSQPPVQVSVK_]” gave a collision cross section (charge state: 3, modification: HexNAc (ST)) of 513.92 Å².

In the case of “IQTKAGEATVK [_IQTK(Dimethyl (K))AGEATVK_]”, the collision cross section [1] is reported as 367.67 ± 0.82 Å².

Sequence “AGQKLIDVNHYAK [_AGQK(Crotonyl)LIDVNHYAK_]” has a collision cross section [8] of 434.02 ± 0.33 Å² and a collision cross section (charge state: 3, modification: Crotonyl) of 485.3 ± 1.3 Å².
